The target in test [1] is T1, Full-length(FL)-WRS, human tryptophanyl-tRNA synthetase (NP_004175.2) (human, UniProt P23381 2-471).
T1 construct: In the western blot and immunoprecipitation the target was endogenous WRS in lysates of human cells (HeLa, HCT116, HEK293F); also called Human WRS; TrpRS
T1 sequence: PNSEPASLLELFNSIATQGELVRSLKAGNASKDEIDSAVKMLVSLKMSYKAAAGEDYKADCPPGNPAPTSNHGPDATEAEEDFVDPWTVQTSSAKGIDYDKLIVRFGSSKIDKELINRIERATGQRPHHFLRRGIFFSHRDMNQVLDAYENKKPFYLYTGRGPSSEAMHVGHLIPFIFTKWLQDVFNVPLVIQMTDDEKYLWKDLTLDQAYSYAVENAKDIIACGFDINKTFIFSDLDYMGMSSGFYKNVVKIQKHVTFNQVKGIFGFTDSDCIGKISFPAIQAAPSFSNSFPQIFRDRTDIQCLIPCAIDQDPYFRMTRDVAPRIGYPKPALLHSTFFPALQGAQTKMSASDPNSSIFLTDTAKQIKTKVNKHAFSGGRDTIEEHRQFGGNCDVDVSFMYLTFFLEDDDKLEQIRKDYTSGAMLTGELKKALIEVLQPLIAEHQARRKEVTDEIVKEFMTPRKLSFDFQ
As to the kind of experiment: western blot on HeLa and HCT116 cell lysates, purified scFv detected with anti-HA-HRP.

Test [2] deals with T1, Full-length(FL)-WRS, human …. Nature of the test: cell-based or functional assay.
Test [3] has the same target. Nature of the test: SPR (Biacore 2000), FL-WRS immobilised on a CM5 chip, antibody 6.25-100 nM as analyte.

B1: 3C6 scFv (scFv)
scFv: EVQLLESGGGLVQPGGSLRLSCAASGFTFSSYDMSWVRQAPGKGLEWVSAISSGGSSIYYADSVKGRFTISRDNSKNTLYLQMNSLRAEDTAVYYCARDVAWDMLGDFDYWGQGTLVTVSSGGGGSGGGGSGGGGSQSVLTQPPSASGTPGQRVTISCTGSSSNIGSNYVYWYQQLPGTAPKLLIYANSHRPSGVPDRFSGSKSGTSASLAISGLRSEDEADYYCGAWDDSLSAYVFGGGTKLTV
notes: The scFv comes from an HA-tagged human scFv phage library; It was expressed in the E. coli periplasm, purified on Ni-NTA and detected with anti-HA-HRP; also called 3C6 scFv clone
In the case of B1, in test [1], the binding result is “binds”.

B2: 3C6 IgG 단일클론 항체 (anti-WRS(3C6) IgG) (antibody, V domains shown)
VH: EVQLLESGGGLVQPGGSLRLSCAASGFTFSSYDMSWVRQAPGKGLEWVSAISSGGSSIYYADSVKGRFTISRDNSKNTLYLQMNSLRAEDTAVYYCARDVAWDMLGDFDYWGQGTLVTVSS
VL: QSVLTQPPSASGTPGQRVTISCTGSSSNIGSNYVYWYQQLPGTAPKLLIYANSHRPSGVPDRFSGSKSGTSASLAISGLRSEDEADYYCGAWDDSLSAYVFGGGTKLTV
notes: The variable regions of the 3C6 scFv were converted to IgG (pcDNA3.4 vectors, expressed in HEK293F, purified on protein A); also called 3C6 IgG 항체; WRS(3C6) 항체
Consider B2, for which the “EC 50 (inhibition of human WRS-induced TNF-α secretion by differentiated THP-1 macrophages)” value in test [2] is 0.035 nM. In test [3], this molecule displayed a Kd of 17.2 nM, a koff of 0.0011 s⁻¹ and a kon of 64100 M⁻¹ s⁻¹.

(Values after patent publication KR20210010236A (dated 2021).)
